Key:
[1] = biological target: soluble KDR Ig4-7 domain (human) (UniProt P35968); assay: ELISA, KDR Ig4-7 coat (1:1 diln.), antibody 1 ug/mL
[2] = biological target: whole KDR-ECD (Cat. # 676490, Calbiochem) (human) (UniProt P35968); assay: ELISA, KDR-ECD coat 5 ug/mL, antibody 1 ug/mL
[3] = biological target: whole KDR-ECD (Cat. # 676490, Calbiochem) (human) (UniProt P35968); assay: ELISA, KDR-ECD coat 5 ug/mL, antibody 0.1 ug/mL
[4] = biological target: whole KDR-ECD (Cat. # 676490, Calbiochem) (human) (UniProt P35968); assay: ELISA, KDR-ECD coat 5 ug/mL, antibody 0.01 ug/mL
[5] = biological target: soluble KDR Ig4-7 domain (human) (UniProt P35968); assay: ELISA, KDR Ig4-7 coat (1:1 diln.), antibody 0.1 ug/mL
[6] = biological target: soluble KDR Ig4-7 domain (human) (UniProt P35968); assay: ELISA, KDR Ig4-7 coat (1:1 diln.), antibody 0.01 ug/mL
[7] = biological target: human KDR (VEGFR2) on cells (human) (UniProt P35968); assay: FACS on HUVEC, control at 2 ug/mL
[8] = biological target: KDR (human) (UniProt P35968); assay: cell-based or functional assay
KDR (human), sequence (P35968 20-1356): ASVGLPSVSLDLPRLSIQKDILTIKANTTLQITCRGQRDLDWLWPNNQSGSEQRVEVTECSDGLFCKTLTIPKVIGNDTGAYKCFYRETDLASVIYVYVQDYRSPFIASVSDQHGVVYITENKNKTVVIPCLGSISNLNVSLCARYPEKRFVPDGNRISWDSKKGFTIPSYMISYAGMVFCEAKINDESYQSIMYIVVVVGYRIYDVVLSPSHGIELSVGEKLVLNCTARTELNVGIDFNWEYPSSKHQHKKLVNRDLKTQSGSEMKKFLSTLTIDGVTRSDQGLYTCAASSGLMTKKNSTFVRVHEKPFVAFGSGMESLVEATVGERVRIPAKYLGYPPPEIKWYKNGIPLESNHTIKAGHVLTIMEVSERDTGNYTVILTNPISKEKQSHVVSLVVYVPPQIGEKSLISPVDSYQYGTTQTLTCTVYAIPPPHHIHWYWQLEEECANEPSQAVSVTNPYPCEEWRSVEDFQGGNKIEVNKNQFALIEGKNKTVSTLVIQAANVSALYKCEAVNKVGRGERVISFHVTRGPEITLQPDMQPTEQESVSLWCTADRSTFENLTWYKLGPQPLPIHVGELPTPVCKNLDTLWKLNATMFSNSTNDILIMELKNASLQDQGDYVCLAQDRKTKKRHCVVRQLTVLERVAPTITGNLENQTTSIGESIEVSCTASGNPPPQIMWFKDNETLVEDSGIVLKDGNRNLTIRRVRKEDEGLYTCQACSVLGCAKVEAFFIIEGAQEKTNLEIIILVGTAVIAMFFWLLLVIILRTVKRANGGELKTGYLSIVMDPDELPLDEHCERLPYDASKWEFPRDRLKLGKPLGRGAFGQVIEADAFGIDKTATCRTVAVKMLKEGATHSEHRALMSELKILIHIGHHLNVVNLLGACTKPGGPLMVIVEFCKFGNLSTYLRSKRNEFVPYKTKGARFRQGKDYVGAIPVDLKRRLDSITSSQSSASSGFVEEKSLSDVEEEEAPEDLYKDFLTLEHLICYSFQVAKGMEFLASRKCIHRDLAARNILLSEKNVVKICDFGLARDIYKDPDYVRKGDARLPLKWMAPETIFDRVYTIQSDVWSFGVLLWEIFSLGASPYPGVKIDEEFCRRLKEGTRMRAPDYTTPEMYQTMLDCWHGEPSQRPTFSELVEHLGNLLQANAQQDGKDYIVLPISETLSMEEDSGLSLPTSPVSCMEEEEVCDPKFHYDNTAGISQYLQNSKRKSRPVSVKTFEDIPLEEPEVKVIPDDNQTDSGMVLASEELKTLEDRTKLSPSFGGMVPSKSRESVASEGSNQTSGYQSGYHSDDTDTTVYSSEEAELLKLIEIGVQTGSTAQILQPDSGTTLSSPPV

soluble KDR Ig4-7 domain (human), sequence (P35968 328-764): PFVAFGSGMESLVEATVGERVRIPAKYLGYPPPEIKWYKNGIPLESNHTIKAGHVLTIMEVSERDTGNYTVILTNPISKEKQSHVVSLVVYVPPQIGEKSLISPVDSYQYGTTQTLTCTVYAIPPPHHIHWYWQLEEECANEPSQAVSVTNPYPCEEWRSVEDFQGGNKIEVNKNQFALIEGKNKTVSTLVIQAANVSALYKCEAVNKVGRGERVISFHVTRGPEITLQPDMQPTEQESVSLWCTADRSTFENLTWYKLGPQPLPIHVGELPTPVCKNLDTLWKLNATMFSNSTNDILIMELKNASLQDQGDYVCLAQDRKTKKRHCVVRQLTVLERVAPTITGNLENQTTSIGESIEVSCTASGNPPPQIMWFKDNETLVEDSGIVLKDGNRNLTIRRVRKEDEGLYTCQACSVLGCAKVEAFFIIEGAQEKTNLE
whole KDR-ECD (Cat. # 676490, Calbiochem) (human), sequence (P35968 20-764): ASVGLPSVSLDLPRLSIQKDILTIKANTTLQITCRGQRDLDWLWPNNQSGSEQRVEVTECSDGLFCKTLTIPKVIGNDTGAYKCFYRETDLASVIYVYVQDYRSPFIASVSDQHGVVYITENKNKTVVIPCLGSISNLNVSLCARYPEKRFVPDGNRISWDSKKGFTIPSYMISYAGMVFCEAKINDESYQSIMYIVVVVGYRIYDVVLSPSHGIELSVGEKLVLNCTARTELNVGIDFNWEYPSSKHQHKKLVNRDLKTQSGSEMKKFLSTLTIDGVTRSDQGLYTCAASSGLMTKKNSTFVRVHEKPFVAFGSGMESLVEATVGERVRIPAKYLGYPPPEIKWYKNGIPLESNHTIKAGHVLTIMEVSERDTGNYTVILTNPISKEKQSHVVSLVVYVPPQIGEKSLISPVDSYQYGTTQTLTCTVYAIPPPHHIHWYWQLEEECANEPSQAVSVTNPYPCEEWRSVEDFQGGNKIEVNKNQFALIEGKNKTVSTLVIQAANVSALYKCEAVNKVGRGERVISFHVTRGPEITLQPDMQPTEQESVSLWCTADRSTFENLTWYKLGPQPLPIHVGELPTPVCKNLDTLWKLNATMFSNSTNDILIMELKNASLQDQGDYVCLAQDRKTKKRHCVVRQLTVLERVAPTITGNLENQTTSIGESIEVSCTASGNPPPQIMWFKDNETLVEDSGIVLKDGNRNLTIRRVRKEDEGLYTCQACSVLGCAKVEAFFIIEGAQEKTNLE
human KDR (VEGFR2) on cells (human), sequence (P35968 20-1356): as the sequence (P35968 20-1356) above

IgG4 (Control) (Sigma-Aldrich, Cat. #14639) (antibody)
ELISA reading [1]: 0.181 | ELISA reading [2]: 0.106 | ELISA reading [3]: 0.078 | ELISA reading [4]: 0.077 | ELISA reading [5]: 0.078 | ELISA reading [6]: 0.075

goat isotype control (antibody)
FACS Geometric Mean [7]: 3.28

IgG4 (antibody)
% of Max VEGF KDR pTyr Activity (at 133 nM antibody concentration), Average [8]: 8% | % of Max VEGF KDR pTyr Activity (at 133 nM antibody concentration), N = 1 [8]: 6% | % of Max VEGF KDR pTyr Activity (at 133 nM antibody concentration), N = 2 [8]: 10%

IgG2 (antibody)
% of Max VEGF KDR pTyr Activity (at 133 nM antibody concentration), Average [8]: 9% | % of Max VEGF KDR pTyr Activity (at 133 nM antibody concentration), N = 1 [8]: 6% | % of Max VEGF KDR pTyr Activity (at 133 nM antibody concentration), N = 2 [8]: 12%

IgG1 (Control) (Sigma-Aldrich, Cat. #15154) (antibody)
ELISA reading [1]: 0.139 | ELISA reading [2]: 0.121 | ELISA reading [3]: 0.087 | ELISA reading [4]: 0.082 | ELISA reading [5]: 0.097 | ELISA reading [6]: 0.079

— patent US20100260765A1
